Assays:
[1] = 35 mU/kg IV every six minutes, ten bursts
[2] = cited from earlier work
[3] = 0.25 mU/kg/min continuous IV insulin infusion; cited from earlier work

insulin
burst at which steady state (Cmax and Cmin bands) is reached [1]: fourth burst | drop in glucose levels ([2]; 40 mU/kg IV insulin over 3 minutes, over about 30 minutes): almost half | time for blood insulin to drop from 1000 to 500 ([2]; 40 mU/kg IV over 3 minutes): ~3 min | glucose decrease at steady state [3]: about 25%
